Experimental data reported in patent publication US20210292396A1.

Columns and labels:
Test in all cases: cell-based or functional assay
[1] = target: HIV Env of isolate 16055-2.3 (HIV)
[2] = target: Env of HIV isolate DU151.02 (clade C) (HIV)
[3] = target: Env of HIV isolate CNE40 (clade BC) (HIV)
[4] = target: HIV Env of isolate CAP45.G3 (HIV)
[5] = target: Env of HIV isolate CNE14 (clade B) (HIV)
[6] = target: Env of HIV isolate RW020.2 (clade A) (HIV)
[7] = target: HIV Env of isolate 001428-2.42 (HIV)
[8] = target: Env of HIV isolate 246-F3.C10.2 (clade AC) (HIV)
[9] = target: Env of HIV isolate ZM214.15 (clade C) (HIV)
[10] = target: Env of HIV isolate T250-4 (clade AG) (HIV)
[11] = target: Env of HIV isolate 6785.v5.c14 (clade C) (HIV)
[12] = target: Env of HIV isolate CH119.10 (clade BC) (HIV)
[13] = target: Env of HIV isolate 0439.v5.c1 (clade A) (HIV)
[14] = target: Env of HIV isolate ZM197.7 (clade C) (HIV)
[15] = target: Env of HIV isolate 6838.v1.c35 (clade C) (HIV)
[16] = target: Env of HIV isolate 3301.v1.c24 (clade AC) (HIV)
[17] = target: Env of HIV isolate DU156.12 (clade C) (HIV)
[18] = target: Env of HIV isolate ZM176.66 (clade C) (HIV)
[19] = target: Env of HIV isolate CNE15 (clade BC) (HIV)
[20] = target: HIV Env of isolate CNE20 (HIV)
[21] = target: HIV Env of isolate 96ZM651.02 (HIV)
[22] = target: Env of HIV isolate BJOX028000.10.3 (clade AE) (HIV)
[23] = target: Env of HIV isolate R2184.c4 (clade AE) (HIV)
[24] = target: HIV Env of isolate X1193.c1 (HIV)
[25] = target: Env of HIV isolate SF162.LS (clade B) (HIV)
[26] = target: Env of HIV isolate DU422.01 (clade C) (HIV)
[27] = target: HIV Env of isolate ZM109.4 (HIV)
[28] = target: Env of HIV isolate 6322.v4.c1 (clade C) (HIV)
[29] = target: Env of HIV isolate 191821.E6.1 (clade D) (HIV)
[30] = target: Env of HIV isolate 231965.c01 (clade D) (HIV)
[31] = target: Env of HIV isolate 0815.v3.c3 (clade ACD) (HIV)
[32] = target: HIV Env of isolate 6785.v5.c14 (HIV)
[33] = target: HIV Env of isolate CH181.12 (HIV)
[34] = target: HIV Env of isolate 3637.v5.c3 (HIV)
[35] = target: Env of HIV isolate X2088.c9 (clade G) (HIV)
[36] = target: HIV Env of isolate CNE19 (HIV)
[37] = target: Env of HIV isolate TRJO.58 (clade B) (HIV)
[38] = target: Env of HIV isolate 286.36 (clade C) (HIV)
[39] = target: Env of HIV isolate CAP244.D3 (clade C) (HIV)
[40] = target: Env of HIV isolate CNE30 (clade C in Table 7) (HIV)
[41] = target: Env of HIV isolate WITO.33 (clade B) (HIV)
[42] = target: Env of HIV isolate ZM106.9 (clade C) (HIV)
[43] = target: Env of HIV isolate 620345.c1 (clade AE) (HIV)
[44] = target: Env of HIV isolate 6535.3 (clade B) (HIV)
[45] = target: Env of HIV isolate TV1.29 (clade C) (HIV)
[46] = target: Env of HIV isolate CNE5 (clade AE) (HIV)
[47] = target: Env of HIV isolate ZM55.28a (clade C) (HIV)
[48] = target: Env of HIV isolate CAP256.206.C9 (clade C) (HIV)
[49] = target: Env of HIV isolate BaL.26 (clade B) (HIV)
[50] = target: Env of HIV isolate ZM109.4 (clade C) (HIV)

B1: ePGT121.18 (ePGT121.18.H1 VH and ePGT121.17.L1 VL) (antibody, V domains shown)
VH: QMQLQESGPGLVKPGETLSLTCSVSGASISSSYWSWLRETPGKGLEWIGYTHHSGDTNYAPSLKSRVHLGLHPSKNQVSLSLTSVTAADTAVYYCARTLHGRRIYGVVAFNEYYTYFYWPTWGKGTQVTVSS
VL: SDISVAPGETVRITCGGESIGSRAVQWYQHRPGQAPRLIIYNNQDRPPGIPERFSGSPDIDFGTTATLTISNVEAGDEATYYCHIWDSRRPTNWELGPGTTLTVL
IC80, pseudovirus neutralization (M1) [1]: 89 ng/mL
IC80, pseudovirus neutralization (M2) [1]: 59 ng/mL
IC50, pseudovirus neutralization [2]: 1 ng/mL
IC50, pseudovirus neutralization [3]: 15 ng/mL
IC80, pseudovirus neutralization (M1) [4]: 20600 ng/mL
IC80, pseudovirus neutralization (M2) [4]: 47500 ng/mL
IC50, pseudovirus neutralization [5]: 1 ng/mL
IC50, pseudovirus neutralization [6]: 2 ng/mL
IC80, pseudovirus neutralization (M1) [7]: 3 ng/mL
IC80, pseudovirus neutralization (M2) [7]: 4 ng/mL
IC50, pseudovirus neutralization [8]: 4800 ng/mL
IC50, pseudovirus neutralization [9]: 18 ng/mL
IC50, pseudovirus neutralization [10]: 0.8 ng/mL
IC50, pseudovirus neutralization [11]: 2 ng/mL
IC50, pseudovirus neutralization [12]: 4 ng/mL
IC50, pseudovirus neutralization [13]: 5670 ng/mL
IC50, pseudovirus neutralization [14]: > 50000 ng/mL
IC50, pseudovirus neutralization [15]: 386 ng/mL
IC50, pseudovirus neutralization [16]: 3 ng/mL
IC50, pseudovirus neutralization [17]: 1 ng/mL
IC50, pseudovirus neutralization [18]: 17 ng/mL
IC50, pseudovirus neutralization [19]: 5690 ng/mL
IC80, pseudovirus neutralization (M1) [20]: 3 ng/mL
IC80, pseudovirus neutralization (M2) [20]: 4 ng/mL
IC80, pseudovirus neutralization (M1) [21]: 2 ng/mL
IC80, pseudovirus neutralization (M2) [21]: 3 ng/mL
IC50, pseudovirus neutralization [22]: 54 ng/mL
IC50, pseudovirus neutralization [23]: > 50000 ng/mL
IC80, pseudovirus neutralization (M1) [24]: 4 ng/mL
IC80, pseudovirus neutralization (M2) [24]: 5 ng/mL
IC50, pseudovirus neutralization [25]: 2 ng/mL
IC50, pseudovirus neutralization [26]: 6 ng/mL
IC80, pseudovirus neutralization (M1) [27]: > 50000 ng/mL
IC80, pseudovirus neutralization (M2) [27]: > 50000 ng/mL
IC50, pseudovirus neutralization [28]: > 50000 ng/mL
IC50, pseudovirus neutralization [29]: 15 ng/mL
IC50, pseudovirus neutralization [30]: 9170 ng/mL
IC50, pseudovirus neutralization [31]: 1 ng/mL
IC80, pseudovirus neutralization (M1) [32]: 6 ng/mL
IC80, pseudovirus neutralization (M2) [32]: 6 ng/mL
IC80, pseudovirus neutralization (M1) [33]: 3 ng/mL
IC80, pseudovirus neutralization (M2) [33]: 4 ng/mL
IC80, pseudovirus neutralization (M1) [34]: > 50000 ng/mL
IC80, pseudovirus neutralization (M2) [34]: > 50000 ng/mL
IC50, pseudovirus neutralization [35]: 2 ng/mL
IC80, pseudovirus neutralization (M1) [36]: 6 ng/mL
IC80, pseudovirus neutralization (M2) [36]: 4 ng/mL
IC50, pseudovirus neutralization [37]: 3 ng/mL
IC50, pseudovirus neutralization [38]: 1 ng/mL
IC50, pseudovirus neutralization [39]: 21200 ng/mL
IC50, pseudovirus neutralization [40]: 5 ng/mL
IC50, pseudovirus neutralization [41]: 4 ng/mL
IC50, pseudovirus neutralization [42]: 1 ng/mL
IC50, pseudovirus neutralization [43]: > 50000 ng/mL
IC50, pseudovirus neutralization [44]: 1 ng/mL
IC50, pseudovirus neutralization [45]: 2 ng/mL
IC50, pseudovirus neutralization [46]: 7180 ng/mL
IC50, pseudovirus neutralization [47]: 5 ng/mL
IC50, pseudovirus neutralization [48]: 1 ng/mL
IC50, pseudovirus neutralization [49]: 2 ng/mL
IC50, pseudovirus neutralization [50]: 7260 ng/mL

B2: ePGT121.15.H2.L1 (antibody, V domains shown)
VH: QMQLQESGPGLVKPGETLSLTCSVSGASISSSYWSWLRETPGKGLEWIGYTHHSGDTNYAPSLKSRVHLGLHPSKNQVSLSLTSVTAADTAVYYCARTLHGRRIYGVVAFNEWFTYFYWEVWGKGTQVTVSS
VL: SDISVAPGETVRISCGGESIGSRAVQWYQHRAGQAPKLIIYNNQDRPPGIPERFSGSPDIDFGTTATLTITNVEAGDEATYYCHIWDSRRPTNWVFGGGTTLTVL
neutralization (Table 6 value) [20]: 0.000538
neutralization (Table 6 value) [36]: 0.000602
